Read-outs that look alike come from different tables or passages of the source.

In series [1] the target is T1, PDGF-BB (human, UniProt P01127 82-190). Nature of the series: ELISA. In general terms: In an ELISA, binding on a coated surface is turned into a signal by an enzyme label.
Series [2] addresses T1, PDGF-BB. Nature of the series: ELISA. This is another data set of the same source.

T1 sequence (P01127 82-190): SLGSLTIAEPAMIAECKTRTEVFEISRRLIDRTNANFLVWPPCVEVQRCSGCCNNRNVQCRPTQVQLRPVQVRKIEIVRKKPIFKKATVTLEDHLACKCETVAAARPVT

B1: Aa11 (structured_DNA)
DNA: CAGGCTACGGCACGTAGAGCATCACCATGATCCTGAAAAAATAATACGACTCACTATAGGGCCGTAGCCTG
Regarding B1, in series [1], the binding result was “binds”.

B2: Aa10 (structured_DNA)
DNA: CAGGCTACGGCACGTAGAGCATCACCATGATCCTGAAAAAATAATACGACTCACTATAGGGTCCGTAGCCTG
As to B2, the binding result in series [2] is “binds”.

For the origin of these results see article PMC9385276.
